Measured values taken from the supplement of paper PMC6757056.
± gives the standard deviation of the averaged measurements.

B1: library; a variant is named by its letters at N, in order (parent)
chain: GCUGUCACCGGAAUACCAGCAUCGUCUUGAUGCCCUUGGAAGUCCGGUCUGAUGAGUCCNNNNNGGACGAAACAGC

Columns and labels:
theophylline [1] = variants of: B1; experiment: FACS-Seq fitted mean relative fluorescence mCherry/BFP without ligand (log10 relative fluorescence); higher = higher reporter protein expression; conditions: HEK293T, ligand present: no
Summary of the method: (§1)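 Fluorescence values are fitted normal means of bin counts along the mCherry/BFP axis. HEK293T libraries lentivirally carrying the ribozyme switch in an mCherry reporter, with an EF1α-BFP marker, were enriched, exposed to ligand or not for 48 h, and sorted into 6 bins. Genomic DNA per bin was PCR-amplified, barcoded and run on MiSeq. Means of log10(mCherry/BFP) were scaled to five spiked-in control ribozymes.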

theophylline [2] = variants of: B1; experiment: normalized RNA/DNA level with ligand (relative to sTRSVctl = 100) (log10 (% of sTRSVctl)); higher = less ribozyme self-cleavage, higher mRNA level; conditions: ligand concentration (+) RNA-Seq: 5 mM, HEK293T, reporter: mCherry (pCS4076), ligand present: yes
Summary of the method: (§2)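 RNA level was computed as RNA reads over DNA reads divided by a spiked-in non-cleaving sequence or by the top sequences, then scaled and log-transformed. Scaling was ×100 with log10, the top group was 25 sequences, and the threshold was ≥100 DNA reads. The reads came from HEK293T cells transfected at 4 µg per 6-well well with ribozyme switch library plasmids (mCherry, or eGFP in some ligand experiments). Total RNA was extracted with EDTA 72 h after transfection, with any ligand added 1 h before it.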

theophylline [3] = variants of: B1; experiment: normalized RNA/DNA level without ligand (relative to sTRSVctl = 100) (log10 (% of sTRSVctl)); higher = less ribozyme self-cleavage, higher mRNA level; conditions: HEK293T, reporter: mCherry (pCS4076), ligand present: no
Summary of the method: as §2

theophylline [4] = variants of: B1; experiment: FACS-Seq fitted mean relative fluorescence mCherry/BFP with ligand (log10 relative fluorescence); ligand concentration (+) FACS-Seq: 1 mM; higher = higher reporter protein expression; conditions: HEK293T, ligand present: yes
Summary of the method: as §1

Variant	FACS-Seq fitted mean (log10) (theophylline [1])	normalized RNA/DNA level with ligand (log10) (theophylline [2])	normalized RNA/DNA level without ligand (log10) (theophylline [3])	FACS-Seq fitted mean (log10) (theophylline [4])
UUGAC	0.872 ± 0.033	2.05 ± 0.042	1.93 ± 0.075	0.849 ± 0.085
UUGAU	0.68 ± 0.041	2.06 ± 0.1	1.82 ± 0.044	0.708 ± 0.03
UUGAA	0.273 ± 0.006	1.94 ± 0.08	1.29 ± 0.064	0.619 ± 0.026
CGUGA	-0.0723 ± 0.18	1.97 ± 0.025	1.58 ± 0.054	0.221 ± 0.11
AGGUA	0.987 ± 0.032	1.979 ± 0.0062	1.66 ± 0.04	1.26 ± 0.14
AGGUC	0.52 ± 0.032	1.95 ± 0.15	1.872 ± 0.016	0.587 ± 0.049
AUCGA	0.863 ± 0.17	2.02 ± 0.087	1.76 ± 0.19	0.825 ± 0.13
AUCGU	0.902 ± 0.057	2.03 ± 0.13	1.93 ± 0.042	0.848 ± 0.063
AUCGC	0.925 ± 0.082	1.977 ± 0.017	1.92 ± 0.11	0.889 ± 0.11
AUCGG	0.827 ± 0.073	1.91 ± 0.11	1.87 ± 0.051	0.782 ± 0.12
UUGCG	1.18 ± 0.2	1.95 ± 0.094	1.82 ± 0.08	1.12 ± 0.074
UUGCC	0.794 ± 0.064	1.99 ± 0.067	1.95 ± 0.021	0.78 ± 0.06
CUAAA	0.216 ± 0.045	2.02 ± 0.035	1.5 ± 0.14	0.454 ± 0.068
CUAAC	1.02 ± 0.018	1.94 ± 0.028	1.85 ± 0.019	0.893 ± 0.18
CUAAU	0.912 ± 0.092	2.02 ± 0.015	1.7874 ± 0.001	0.979 ± 0.014
CGUUC	0.959 ± 0.048	1.8643 ± 0.00065	1.75 ± 0.07	0.949 ± 0.067
CGUUU	0.252 ± 0.084	2.06 ± 0.11	1.53 ± 0.077	0.945 ± 0.041
CUCAA	0.816 ± 0.072	1.99 ± 0.05	1.67 ± 0.022	0.914 ± 0.068

Variant	FACS-Seq fitted mean (log10) (theophylline [1])	normalized RNA/DNA level with ligand (log10) (theophylline [2])	normalized RNA/DNA level without ligand (log10) (theophylline [3])	FACS-Seq fitted mean (log10) (theophylline [4])
CUCAU	1.03 ± 0.12	1.973 ± 0.0058	1.85 ± 0.06	1.07 ± 0.03
CUCAC	1.14 ± 0.019	2.02 ± 0.075	2.02 ± 0.13	1.12 ± 0.075
CUAGA	0.973 ± 0.064	1.96 ± 0.084	1.83 ± 0.04	0.9812 ± 0.0091
CUGAA	0.3855 ± 0.0027	2.006 ± 0.0026	1.317 ± 0.0043	0.763 ± 0.15
CUGAU	1.02 ± 0.13	1.995 ± 0.013	1.7215 ± 0.00053	1.07 ± 0.082
CUGAC	0.906 ± 0.093	1.99 ± 0.056	1.99 ± 0.11	0.902 ± 0.031
UUAAA	0.111 ± 0.099	1.895 ± 0.0096	1.26 ± 0.013	0.545 ± 0.078
UUAAC	0.885 ± 0.033	1.946 ± 0.0047	1.93 ± 0.042	0.858 ± 0.072
UUAAU	1.13 ± 0.062	1.9977 ± 0.0018	1.956 ± 0.013	1.07 ± 0.036
UUAAG	0.769 ± 0.074	2.02 ± 0.033	1.855 ± 0.012	0.829 ± 0.086
CUCGA	0.868 ± 0.018	2.04 ± 0.076	1.95 ± 0.12	0.883 ± 0.1
CGGUA	0.028 ± 0.083	1.894 ± 0.0076	1.3 ± 0.025	0.602 ± 0.0084
CGGUC	1.07 ± 0.037	1.98 ± 0.051	1.82 ± 0.076	1.13 ± 0.05
AUAAA	0.196 ± 0.0089	1.99 ± 0.037	1.4 ± 0.12	0.487 ± 0.033
AUAAG	0.547 ± 0.16	1.97 ± 0.17	1.79 ± 0.082	0.578 ± 0.014
AUAAC	0.876 ± 0.022	2.05 ± 0.13	1.96 ± 0.15	0.881 ± 0.11
AUAAU	0.702 ± 0.0096	2.002 ± 0.012	1.79 ± 0.079	0.703 ± 0.064
UUAGC	0.886 ± 0.052	1.97 ± 0.029	1.94 ± 0.042	0.916 ± 0.035
